The experiment addresses T1, hCLDN18.2 (human) (UniProt P56856).
T1 sequence (looked up): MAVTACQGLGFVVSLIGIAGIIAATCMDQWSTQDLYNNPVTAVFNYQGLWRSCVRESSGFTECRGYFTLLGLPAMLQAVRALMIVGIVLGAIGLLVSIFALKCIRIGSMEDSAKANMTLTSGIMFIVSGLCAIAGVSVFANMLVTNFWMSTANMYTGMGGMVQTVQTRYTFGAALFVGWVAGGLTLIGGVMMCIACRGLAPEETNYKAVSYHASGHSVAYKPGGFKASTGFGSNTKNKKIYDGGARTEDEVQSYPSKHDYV
The experiment is described as follows: FACS titration on 18.2-K562 cells (20 to 0.002 μg/mL), Anti-Human IgG FITC, MFI.

B1: 抗体E1(C18-23-3G5-1E1) (antibody, V domains shown)
VH: EVQLQQSGPELVKPGASVKISCQASGYTFTDYYMNWVKQSHVKSLEWIGHINPKNGGTNYNQNFKDKATLTVDKSSSTAYMELRSLTSEDSAVYYCARIYYGNSFVYWGQGTLVTVSA
VL: DIVMTQSPSFLTVTAGEKVTLNCKSSQSLLNSGNQKSYLTWYQQKPGQPPKLLIYWASTRESGVPDRFIGSGSGTDFTLTISSVQAEDLAVYYCQNNYFYPVTFGAGTKLELK
The molecule B1 showed a 抗体亲和力 of 0.696 µg/mL.

Source of the values: patent CN113321730A.
